# ± gives the standard error.
# B1: library; numbered along this chain (parent)
# chain: MATDAALRRLLRLHRTEIAVAVDSAFPLLHALADHDVVPEDKFQETLHLKEKEGCPQAFHALLSWLLTQDSTAILDFWRVLFKDYNLERYGRLQPILDSFPKDVDLSQPRKGRKPPAVPKALVPPPRLPTKRKASEEARAAAPAALTPRGTASPGSQLKAKPPKKPESSAEQQRLPLGNGIQTMSASVQRAVAMSSGDVPGARGAVEGILIQQVFESGGSKKCIQVGGEFYTPSKFEDSGSGKNKARSSSGPKPLVRAKGAQGAAPGGGEARLGQQGSVPAPLALPSDPQLHQKNEDECAVCRDGGELICCDGCPRAFHLACLSPPLREIPSGTWRCSSCLQATVQEVQPRAEEPRPQEPPVETPLPPGLRSAGEEVRGPPGEPLAGMDTTLVYKHLPAPPSAAPLPGLDSSALHPLLCVGPEGQQNLAPGARCGVCGDGTDVLRCTHCAAAFHWRCHFPAGTSRPGTGLRCRSCSGDVTPAPVEGVLAPSPARLAPGPAKDDTASHEPALHRDDLESLLSEHTFDGILQWAIQSMARPAAPFPS
# Variants of: B1
# Assay: AIRE transcriptional activation functional score (insulin promoter-GFP; nonsense median 0, synonymous median 1) (normalised score); higher = higher AIRE activity (more reporter activation)
# Conditions: with insulin promoter-GFP reporter in HEK293
# How it was run: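 Codon-optimized AIRE NNN-codon libraries (three regions) were integrated by Bxb1 recombinase into Flp-In T-REx HEK293 landing-pad cells carrying an insulin core promoter-GFP reporter. Integrants (mCherry+, BFP−) sorted at day 7 were expanded 7 days; top 10% GFP and unselected integrant populations were tile-sequenced. Functional score is select versus non-select variant enrichment, wild-type subtracted. Variants needed 10 counts per million in non-select; scores were rescaled to nonsense median 0 and synonymous median 1, then averaged over biological replicates.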
row,Variant,AIRE transcriptional activation functional score
1,A403E,1.14 ± 0.42
2,Q182L,0.0585 ± 0.2
3,L366E,1.32 ± 0.051
4,F26V,-0.0518 ± 0.31
5,L47C,-0.421 ± 0.3
6,P398M,0.82 ± 0.099
7,E298L,0.839 ± 0.34
8,G150R,0.148 ± 0.46
9,G150D,-0.34 ± 0.4
10,P483Q,0.926 ± 0.086
11,S135H,1.48 ± 0.27
12,S135G,-0.37 ± 0.43
13,R79W,0.0958 ± 0.034
14,I224D,0.864 ± 0.15
15,P499I,1.18 ± 0.57
16,P499W,1.37 ± 0.043
17,P148K,-0.163 ± 0.16
18,A271K,1.1 ± 0.14
19,A452E,1.54 ± 0.056
20,P430L,1.18 ± 0.24
21,T151W,1.97 ± 0.091

row,Variant,AIRE transcriptional activation functional score
1,R538G,0.544 ± 0.22
2,K131D,-0.154 ± 0.41
3,E51A,0.128 ± 0.27
4,C475F,0.14 ± 0.18
5,E375C,0.539 ± 0.2
6,G527F,-0.224 ± 0.17
7,H454N,-0.0603 ± 0.43
8,L49A,0.327 ± 0.31
9,F236V,0.877 ± 0.39
10,S402R,1.02 ± 0.21
11,A399M,1.22 ± 0.046
12,T441L,1.13 ± 0.093
13,R127T,0.335 ± 0.37
14,G305Y,1.05 ± 0.14
15,G305K,1.08 ± 0.11
16,W531Q,0.225 ± 0.11
17,G204K,0.976 ± 0.28
18,A261N,0.506 ± 0.19
19,L283M,1.34 ± 0.034
20,W335D,1.1 ± 0.21
21,M536C,1.08 ± 0.067

row,Variant,AIRE transcriptional activation functional score
1,G91F,0.132 ± 0.17
2,A264G,1.29 ± 0.26
3,T46M,2.55 ± 0.11
4,S278N,0.723 ± 0.3
5,N427Y,1.47 ± 0.04
6,N427S,1.1 ± 0.39
7,K221M,1.02 ± 0.17
8,G180I,0.248 ± 0.49
9,V436E,0.492 ± 0.29
10,R328M,1.1 ± 0.11
11,R328K,0.67 ± 0.29
12,M194V,1.31 ± 0.28
13,R203L,1.1 ± 0.35
14,R203C,1.82 ± 0.066
15,H292K,0.992 ± 0.13
16,H60W,0.431 ± 0.35
17,V37D,0.512 ± 0.35
18,A343N,0.601 ± 0.21
19,L397C,0.827 ± 0.18
20,L385T,0.874 ± 0.097
21,L392I,1.7 ± 0.47

row,Variant,AIRE transcriptional activation functional score
1,A284S,1.1 ± 0.28
2,A284I,1.23 ± 0.24
3,G208W,0.199 ± 0.079
4,S476V,0.878 ± 0.21
5,F230T,0.761 ± 0.38
6,L516T,0.362 ± 0.28
7,A117N,0.792 ± 0.33
8,D105N,0.431 ± 0.72
9,P119G,0.741 ± 0.48
10,P119F,1.39 ± 0.14
11,P289V,1.09 ± 0.2
12,Y231N,0.775 ± 0.13
13,Y231H,0.724 ± 0.039
14,G277N,1.2 ± 0.24
15,L273F,0.977 ± 0.078
16,P143E,1.5 ± 0.46
17,W65M,-0.0554 ± 0.18
18,W65T,1.03 ± 0.31
19,P466S,1.08 ± 0.45
20,G263Q,-0.785 ± 0.52
21,G263F,0.212 ± 0.052
